Experiments:
[1] = target: T1, 293T細胞及びTHP-1細胞の表面で過剰発現されたCD300c (UniProt Q08708 21-224, limits assumed); assay: flow cytometry (MFI) on 293T cells overexpressing CD300c, FITC anti-human IgG (H+L)
T1 construct: whole, on cells; Expression construct not described; also called CD300c overexpressed on 293T cells; CD300c overexpressed on THP-1 cells
T1 sequence (looked up): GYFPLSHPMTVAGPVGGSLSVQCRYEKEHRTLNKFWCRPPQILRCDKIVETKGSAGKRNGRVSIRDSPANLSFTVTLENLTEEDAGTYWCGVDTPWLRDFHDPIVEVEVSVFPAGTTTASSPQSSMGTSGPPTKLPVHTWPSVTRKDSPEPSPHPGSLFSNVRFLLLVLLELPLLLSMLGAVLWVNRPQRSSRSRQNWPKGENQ

[2] = target: T2, CD300c抗原(11832-H08H、Sino Biological) (UniProt Q08708 21-183); assay: SPR, CD300c immobilised on CM5 chip, CL7 as analyte 0-6.25 ug/ml
T2 construct: Bought recombinant protein; also called CD300c; CD300c antigen
T2 sequence (looked up): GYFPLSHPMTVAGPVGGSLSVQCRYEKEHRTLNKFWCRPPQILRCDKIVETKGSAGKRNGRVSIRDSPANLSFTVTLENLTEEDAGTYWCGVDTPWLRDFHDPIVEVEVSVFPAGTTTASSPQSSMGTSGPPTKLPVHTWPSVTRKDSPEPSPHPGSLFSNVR

[3] = target: T1, 293T細胞及びTHP-1細胞の表面で過剰発現されたCD300c; assay: flow cytometry (MFI) on THP-1 cells overexpressing CD300c, FITC anti-human IgG (H+L)
[4] = target: T2, CD300c抗原(11832-H08H、Sino Biological); assay: SPR, CD300c immobilised on CM5 chip, CL7 as analyte 0-6.25 ug/ml (rounded form of the same KD)

EC50 [1]: 2.7 nM
Kd [2]: 0.52 nM
EC50 [3]: 2.6 nM
Kd [4]: 0.52 nM
B1: 抗-CD300cモノクローナル抗体 CL7 (antibody, V domains shown)
VH: EVQLLESGGGLVQPGGSLRLSCAASGFTFSRYAMSWVRQAPGKGLEWVSAISGSGGSTYYADSVKGRFTISRDNSKNTLYLQMNSLRAEDTAVYYCARSSQGIFDIWGQGTLVTVSS
VL: QSVLTQPPSASGTPGQRVTISCSGNNIGTRRVHWYQQLPDTAPKLLIYSKNNRPSGVPDRFSGSKSGTSASLAISGLRSEDEADYYCAAWDDSLSGPVFGGGTKLTVL
